According to publication PMC4108184:

B1: Mag6390 (MAG_6390) (Mycoplasmopsis agalactiae PG2) (protein)
chain: MAKDKFVRTVLGDVPAESIGITDCHDHLIKNGGPEMHEHPDFLMIDVEAAKKEVQEYVDHGGKTIVTMDPPNVGRDVYRMLEIAEAFKGKANIVMSTGFHKAAFYDKYSSWLACVPTDDIVKMMVAEVEEGMDEYNYNGPVVKRSKAKAGIIKAGTGYAAIDRLELKALEVAARTSITTGCPILVHTQLGTMALEVAQHLIGFGANPRKIQLSHLNKNPDRYYYEKIIKETGVTICFDGPDRVKYYPDSLLADHIKYLVDKGLQKHITLSLDAGRILYQRNYGLTKGKETFGLSYLFERFIPLLKQVGVSQEAIDDILINNPREILAFDEPRVYDASKVSSEVVQLKKDLKLL
B2: Ms0025 (MS53_0025) (Mycoplasmopsis synoviae 53) (protein)
chain: MENKFARTVLGDIPVEKLGITDCHDHFIKNGGPEVEEHIDFLMLNVDASIKEFKEFIDRGGSTIVTMDPPNVGRDVLKTLEIANAVKNLGGNVIMSTGFHKAKFYDKYSSWLAVVPTEEIVKMCVAEIEEGMDEYNYNGPVVKRSKAKAGIIKAGTGYGAIDRLELKALEVAARTSILTGCPILVHTQLGTMALEVAKHLIGFGANPDKIQISHLNKNPDKYYYEKVIKETGVTLCFDGPDRVKYYPDSLLAENIKYLVDKGLQKHITLSLDAGRILYQRNYGLTKGKQTFGLAYLFDRFLPLLKQVGVSKEAIFDILVNNPKRVLAFDEKRNFDPLKVSKEVLELKKELNLN

Assays:
purified protein [1] = substrate: O=C1O[C@@H](COP(=O)(O)O)[C@H](O)[C@H]1O; assay: purified protein; details: 2.5 mM Bicine pH 8.3, 0.2 M NaCl, zinc enzyme
purified protein [2] = substrate: O=C1O[C@H](COP(=O)(O)O)[C@H](O)[C@H]1O; assay: purified protein; details: 2.5 mM Bicine pH 8.3, 0.2 M NaCl, zinc enzyme

Protein	Km (purified protein [1]) [µM]	kcat (purified protein [1]) [s⁻¹]	kcat/Km (purified protein [1]) [M⁻¹ s⁻¹]	Km (purified protein [2]) [µM]	kcat (purified protein [2]) [s⁻¹]	kcat/Km (purified protein [2]) [M⁻¹ s⁻¹]
B1	660 ± 60	8.7 ± 0.3	13000 ± 1000	900 ± 100	–	–
B2	300 ± 20	–	–	500 ± 40	23.4 ± 0.8	47000 ± 4000
